# In the nanobody polyreactivity screen of Harvey et al. (2022):
# Assay: yeast display, Sf9 membrane polyspecificity reagent, FACS + sequencing; frameworks hold sequencing errors
# Summary of the method: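 Synthetic nanobody libraries on Saccharomyces cerevisiae BJ5465 were galactose-induced for 36–48 hours, stained 1 hour at 4 °C with 10% biotinylated, detergent-solubilized Sf9 membrane reagent and enriched on streptavidin microbeads. FACS then separated cells into low and high (top ~1%) gates by anti-HA (expression) and streptavidin (reagent binding) fluorescence. Genes were colony-PCR amplified, MiSeq 2 × 250 sequenced and CDR-length filtered. A clone's polyreactivity label is that of its gate of origin.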
row,Sequence,polyreactivity (PSR sort gate)
1,QVQLVESGGGLVQAGGSLRLSCAASGFTFVKYAMGWYRQAPGKERELVAAISRSGGRTYYADSVKGRFTISLDNAKNTVYLQMNSLKPEDTAVYYCAADVATTHELDYWGQGTQVTVSS,high polyreactivity
2,QVQLVESGGGLVHPGGRLRLSCAASGRIYKYYVMGWYRQAPGKEREFVAAISGRGGRTYYADSVKGRFTISRDNAKNTVYLQKNSLKPEDTAVYYCATERQDRGPLGYNYWGQGTQVTVSS,high polyreactivity
3,QVQLVESGGGLVQAGGSLRLSCAASGRIFYSYAMGWSRQAPGKERELVAAISFSVGSTYYADSVKGRFTISRDNAKNSVYLQMNSLKPEDTAVYYCAASLGFPGYEYWGQGTQVTVSS,low polyreactivity
4,QVQLVESGGGLVQAGGSLRLSCAASGRIFQGYAMGWYRQAPGKERELVAAIRTGGSTNYADSVKGRFTISRDNAKNTVYLQMNSLKPEDTAVYYCNAVGQLYFYFPRGDYWGQGTQVTVSS,low polyreactivity
5,QVKLVESGGGLVQAGGRLRLSCAASGFTCNVYAMGLYRQAPGKERELVADISGTGGSTYYADSVKGRFTISRDNAKNTVYLQMNSLKPEDTAVYYCSSGTRNFDFWGQGTQVTVSS,high polyreactivity
6,QVQLVESAGGLVQAGGSLRLSCAASGRTFIGNAMGWYRQAPAKERELVAGISYRGGSTYYADSVKGRFSFSRDNAKNTVYLQMNSLKPEDTAVYYCAAPGRGGYYYWGQGTQVTVSS,high polyreactivity
7,QVQLVESGGGLVQAGGSLRLSCAASGFTFVGYAMGWYRQAPGKERELVAAITGRGGTTYYADSVKGRFTISRDNAKNTVYLQMNSLKPEDTAVYYSNADSYITYVQYLYARSWMDYWGQGTQVTVSS,low polyreactivity
8,QVQLVESGGGLVQAGGSLRLSCAASGSISWHYAMGWYRQAPGKERELVASISTDGGTTYYADSVKGRFTISRDNAKNTVYLQMNSLKPEDTAVYYCAAEWYWVYYVPYEYWGQGTQVTVSS,low polyreactivity
9,QVQLVESGGGLVQAGGSLRLSCAASGRTFCVYVMGWYRQAPGKERQLVAAIDDSGGSTYYADSVKGRFTISRDNAKNTVYLQMNSLKPEDTAVYYCAKTKTQYLTSEIRFDYWGQGTQVTVSS,low polyreactivity
10,QVQLVESGGGLVQAGVSLRLSCAASGSIFGHYAMGWYRQAPGKERELVAAISWSGTSTYYADSVKGRFTISRDNAKNTVYLQMNSLKPEDTAVYYCNVVYRVVSPSGGGYWGQGTQVTVSS,high polyreactivity
11,QVQLVESGGGLVQAGGSLRLSCAASGFIFTYYVMGWYRQAPGKERELVATISISDGTTYADSVKGRFTISRDNAKNTVYLQMNSLKPEDTAVYYCAKYFTTYKYDYWGQGTQVTVSS,low polyreactivity
12,QVQLVESGGGLVQAGGSLRLSCAASGSTFGPNTMGWYRQAPGKERELVAAINLRGGRTYYADSVKGRFTISRDNAKNTVYLQMNSLKPEDTAVYYCAARFKTTGYDYWGQGTQVTVSS,high polyreactivity
13,QVQLVESGGGLVQAGGSLRLSCAASGSTFAWYAMGWYRQAPGKERELVAAISSTVGSTYYADSVKGRFTISRDNAKNTVYLQLKSLKPEDTAVYYCARYYYRYYIRQLALGASTYDYWGQGTQVTVSS,high polyreactivity
14,QVQLVESGGGLVQAGCTLRISCAPSGSIFVYNDMGWSRQAPGKERELVASISNGDNTNYADSVKGRFTISRDNAKNTVYLQMNSLKPEDTAVYYCAADGYIGSVVAYGERDYWGQGTQVTVSS,low polyreactivity
15,QVQLVESGGGLVQAGGSLRLSCAASGFIFVVYAMGWYRQAPGKERELVAAITNGGITYYADSVKGRFTISRDNAKNTVYLQMHSLKPEDTADYYCNAQYTDYDGYVGYYYWGEGTQVTVSS,low polyreactivity
16,QVQLVESGGGLVQAGGSLRLSCAASGRIFLHNAMGWYRQAPGKERELVAAITSGGNTNYADSVKGRFTISRDNAKNTVYLQMNSLKPEDTAVYYCATVGKVHHRLVAMDYWGQGTQVTVSS,low polyreactivity
17,QVQLVESGGGLVQAGGSLRLSCAASGRIFSPYAMGWYRQAPGKERELVAAITSSGGSSYYADSVKGRFTISRDYAKNTVYLQMNSLKPEDTAVYYCNARRGRYTPSVNYWGQGTQVTVSS,high polyreactivity
18,QVQLVESGGGLVQAGGSLRLSCAASGSNFTGYGMGWYRQAPGKETELVAAITWSGGSTYYADSVKGRFTISRDNAKNTVYLQMNSLKPEDTAVYYCATPGIYYEMDYWGQGTQVTVSS,low polyreactivity
19,QFQLVESGGGLVQAGGSLRLSCAASGRIFVPNAMGWYRQAPGKEREFVAAINSGGSTYYADSVKGRFTISRDNAKNTVYLQMNSMKPEDTAVYYCAAVDFSSGYYGRLARYYYWGQGTQVTVSS,high polyreactivity
20,QVQLVESGGGLVQAGGSLRLSCAASGSIFGTYTMGWYRQAPGKERELVASISRRGGSTYYADSVKGRFTISRDNAKNTVYLQMNSLKPEDTAVYYCAKPVYYLPGEYDYWGQGTQVTVSS,high polyreactivity
21,QVQLEESGGGLVQAGGSLRLSCAASGRTFSRNAMGWYRQAPGKERELVAAITKGGGSTYYADSVKGRFTISRDNAKNTVYLQMNSLKPEDTAVYYCAARKRPPYGYGYWGQGTQVTVSS,high polyreactivity
22,QVLLVESGGGLVQAGGSLRLSGAASGRTFRRNAIGWYRQAPGKERELVAAISASGGSTYYADSVKGRFTISRDNAMNTVYLEMNSLKPEDTADYYCAAVSQTTYWGQGTQVTVSS,high polyreactivity

row,Sequence,polyreactivity (PSR sort gate)
1,QVQLVESGGGLVQAGGSLRLSCAASGNTLIVNAMGWYRQAPGKERELVAAITRDGRTNYADSVKGRFTISRDNAKNTFYLQMNSLKPEDTAVYYCNALSADWFPEEDYWGQGTQVTVSS,low polyreactivity
2,QVQLVESGGGLVQAGGSLRLSCAASGIIFYEYVMGWYRQAPGKERELVAAISRSGGSTYYADSVKGRFTISRDNAKNTVYLQMNSLKPEDTAVYYCAVDAYRYWWTTYVSDFDYWGQGTQVTVSS,high polyreactivity
3,QVQLVESGGGLVQAGGSLRLSCAASGFTFVSYAMGWYRQEPGKEREFVASISARGGNTFYADSVKGRFTISRDNAKNTVYLQMNSLKPEDTAVYYCAKRGPYGTGYGYWGQGTQLTVSS,high polyreactivity
4,QYQLVESGGGLVQAGGSLRLSCAASGSTFRYYAMGWYRQAPGKETELVAAISTRGGTTYYADSVKGRFTISRDNAKNTVYLQMNSLKPEDTAVYYCAAEALVPLIYYYWGQGTQVTVSS,low polyreactivity
5,QVQLVESGGGLVQAGGSLRLSCAASGSIFGYNTMGWYRQAPGKERDLVADISVSGDDTYYADSVKGRFTISRDNAKITVYLQMNSLKPEDTAVYYCNADEYYGYYHTYDYWGQGTQVTVSS,low polyreactivity
6,QVQLVESGGGLVQAGGSLRLSCAASGRTFRRNAMGWYRQAPGKERELVAAISGGGSTNYADSVKGRFTISRDNAKNTVYLQMNSLKPEDTAVYYCNKRGTIWSGYWGQGTQVTVSS,high polyreactivity
7,QVQLVESGGGLVQAGGSLRLSCAASGIIFYRYAMGWYRQAPGKERELVAAITWRGGSPYYADSVKGRFTISRDNAKNTVYLQMNSLKPEDTAVYYCAAESYWTATYTFDYWGQGTQVTVSS,high polyreactivity
8,QVQLVESGGGLVQAGGSLRLSCASSGIIFHYYAKGWYRQAPGKERELVATISWDGGNTYYADSVKGRFTISRDNAKNRVYLQMNSLKPEDTAVYYCNVYDKAPAYAYWGQGTQVTVSS,low polyreactivity
9,QVQLVESGGGLVQAGGSLRLSCAASGSISIRNAMGWYRQAPGKERELVAAISRGGSTYYADSVKGRFTISRDNAKNKVYLQMNSLKPEDTAVYYCNVLHLRRTAIMDYWGQGTQVTVSS,high polyreactivity
10,QVQLVESGGGLVQAGGSLRLSCAASGITFTGNAMGWYRQAPGKERELVAAISNRGGSTYYADSVKGRFTISRDNAKNTVYLQMNSLKPEDTAVYYCRTSTPRRVSGNYWGQGTQVTVTS,high polyreactivity
11,QVQLVESGGGLVQAGASLRLSCAASGFTLADNTMGWYRQAPGKERELVAAITSGASTYYADSVKGRFTISRDNAKNTVYLQMKSLKPEDTAVYYCAALYYWRSGYDYWGQGTQVTVSS,low polyreactivity
12,QVQLVESGGGLVQAGGSLRLSCPASGFTFGSYAMGWYRQAPGKETEFVAVITRSGRTNYADSVKGRFTISRDNAKNTVYLQMNSLKPEDTAVYYCYADDVDDEVSPDLTEMDYWGQGTQVTVSS,low polyreactivity
13,QVQLVESGGGLDQAGGSLRLRCAASGIIFDYNGMGWYRQAPGKERELVAVISFSGSGTYYADSVKGRFTISRDNAKNTVYLHMNSLKPEDTAVYYCAADTGPYFEYEYWGQGTQVTVSS,low polyreactivity
14,QVQLVESGGGLVQAGGSLRLSCAASGLTFDYYAMGWYRQAPGKERELVAAISASCSSTYYADSVKGRFTISRDNAKNTVYLQMNSLKPEDTAVYYCAAVTKSSVPGSRYDYWGQGTQVTVSS,high polyreactivity
15,QVHLVESGGGLVQAGGSLRLSCAASGFIFRIYAMGWYRQAPGKERELVAAINSSVSTSYADSVKGRFTISRDNAKNTVYLQMNSLKPEDTAVYYCAASRWPYPSYLYIVDSWGQGTQVTVSS,low polyreactivity
16,QVQLVESGGGLVQAGCSLRLSCAACGSIFGPYSMGWYRQAPAKEREFVAAISRSGTSTNYADSVKGRFTISRDNAKNTVYLQMNSLKPEDTAVYYCATAAFIVGSSRTYDYWGQGTQVTVSS,high polyreactivity
17,QVKLVESGGGLVQAGGSLRLSCAASGRTFVWNAMGWYRQAPGKERELVAAISSSGTSTYYADSVKGRFTISRDNAKNTVYLQMNSQKPEDTAVYYCAKDLLYQPTIRDYWGQGTQVTVSS,low polyreactivity
18,QVQLVESGGGLVQAGGSLLLSCAASGSTFYKNAMGWYRQAPGKERELVAAISSGGSTYYADSVKGRFTISRDNAKNTVYLQMNSLKPEDTAVYYCAADYYYIVDYWGQGTQVTVSS,high polyreactivity
19,QVQLVESGGGLVQAGGSLRLSCAASGRIFIYNAMGWYRPAPGKERELVAAINRSGVSTHYADSVKGRFTISRDNEKNTVYLQMNSLKPEDTAVYYCARTVYGARSYDYWGQGTQVTVSS,low polyreactivity
20,QVHLVESGGGLVQAGGSLRLSCAASGRTFYGYDMGWYRQAPGKERELVATISSGGSTNYADSVKGRFTISRDYAKNTVYLQMNSLKPEDTAVYYCNADSYEYPSPYRYYYLGYDYWGQGTQVTVSS,low polyreactivity
21,QVQLVESGGGLVQAGGSLRLICSASGTTFPVYVMGRYRHAPGKERELVAAISRSGTSTYYADSVKGRFTISRDNAKNTVYLQMNSLKPEDTAVYYCAAQLYGHGEDYWGQGTQVTVSS,high polyreactivity
